From publication PMC3037694

Experiments:
[1] = target: HA-tagged bovine pancreatic RNase N113S expressed in CHO cells (bovine) (UniProt P61823)
[2] = target: HA-tagged bovine pancreatic RNase expressed in CHO cells (bovine) (UniProt P61823)

## HA-tagged bovine pancreatic RNase N113S expressed in CHO cells (from UniProt P61823 27-150) (enzyme)
[1]
  efficiency of secretion after a 60-min chase (pulse-chase, CHO cells): 72%

## HA-tagged bovine pancreatic RNase expressed in CHO cells (from UniProt P61823 27-150) (enzyme)
[2]
  efficiency of secretion after a 60-min chase (pulse-chase, CHO cells): 45%
